{"source": "the Human Domainome abundance scans (Beltran et al. 2025)", "parents": {"B1": {"name": "Segment polarity protein dishevelled homolog DVL-3, residues 2 to 81; numbered along this chain, Q92997 (parent)", "chain": "GETKIIYHLDGQETPYLVKLPLPAERVTLADFKGVLQRPSYKFFFKSMDDDFGVVKEEISDDNAKLPCFNGRVVSWLVSA"}}, "note": "± gives the uncertainty stated by the source."}
{"variants_of": "B1", "assay": "abundance fitness (aPCA) (normalised: wild type 0, dead -1); higher = more abundant; growth selection in yeast, the domain comes from the species named", "conditions": "Homo sapiens"}
{"variant": "GQTKIIYHLDGQETPYLVKLPLPAERVTLADFKGVLQRPSYKFFFKSMDDDFGVVKEEISDDNAKLPCFNGRVVSWLVSA", "note": "[E2Q]", "abundance fitness": "-0.194 ± 0.085"}
{"variant": "GETKIIYHLIGQETPYLVKLPLPAERVTLADFKGVLQRPSYKFFFKSMDDDFGVVKEEISDDNAKLPCFNGRVVSWLVSA", "note": "[D10I]", "abundance fitness": "-0.831 ± 0.23"}
{"variant": "GETKIIYHLDGQETPYLVKLELPAERVTLADFKGVLQRPSYKFFFKSMDDDFGVVKEEISDDNAKLPCFNGRVVSWLVSA", "note": "[P21E]", "abundance fitness": "-0.293 ± 0.074"}
{"variant": "GETKIIYHLDGQETPYLVKLMLPAERVTLADFKGVLQRPSYKFFFKSMDDDFGVVKEEISDDNAKLPCFNGRVVSWLVSA", "note": "[P21M]", "abundance fitness": "-0.426 ± 0.091"}
{"variant": "GETKIIYHLDGQETPYLVKLPLPAERVTLADFKGVLQRPSYKFFFKSMDDDFGVVKEEISDDNAKDPCFNGRVVSWLVSA", "note": "[L66D]", "abundance fitness": "-1.44 ± 0.42"}
{"variant": "GETKIIYHLDGQETPYLVKLPLPAERVTLADFKGVLQRPSYKFFFKSMDDDFGVVKEEGSDDNAKLPCFNGRVVSWLVSA", "note": "[I59G]", "abundance fitness": "-0.696 ± 0.069"}
{"variant": "GETKIIYHLDGQETPYLVKLPLPAERVTLADFKGVLQRPSYKFFFKSMDDDFGVVKEEISDDNAKLPCFNGRVVYWLVSA", "note": "[S75Y]", "abundance fitness": "-0.669 ± 0.1"}
{"variant": "GETKIIYHLDGQETPYLVKLPLPAERVTLADFKGVLQRPSYKFFFKSMDDDFGVVKHEISDDNAKLPCFNGRVVSWLVSA", "note": "[E57H]", "abundance fitness": "-0.109 ± 0.11"}
{"variant": "GETKIIYHLDGQETPYLVKLPLPAERVTLADFKGVLQRPSYKFFFKSMDDDFGVVKEEISDDNAKHPCFNGRVVSWLVSA", "note": "[L66H]", "abundance fitness": "-0.475 ± 0.17"}
{"variant": "GETKIIYHLDGQETPYLVKLPLPAERVTNADFKGVLQRPSYKFFFKSMDDDFGVVKEEISDDNAKLPCFNGRVVSWLVSA", "note": "[L29N]", "abundance fitness": "-0.865 ± 0.22"}
{"variant": "GETKIIYHLDGGETPYLVKLPLPAERVTLADFKGVLQRPSYKFFFKSMDDDFGVVKEEISDDNAKLPCFNGRVVSWLVSA", "note": "[Q12G]", "abundance fitness": "0.129 ± 0.057"}
{"variant": "GETKIIYHLDGQETPYLVKRPLPAERVTLADFKGVLQRPSYKFFFKSMDDDFGVVKEEISDDNAKLPCFNGRVVSWLVSA", "note": "[L20R]", "abundance fitness": "-0.779 ± 0.077"}
{"variant": "GEGKIIYHLDGQETPYLVKLPLPAERVTLADFKGVLQRPSYKFFFKSMDDDFGVVKEEISDDNAKLPCFNGRVVSWLVSA", "note": "[T3G]", "abundance fitness": "-0.853 ± 0.076"}
{"variant": "GETKIIYHLDGQETPYLVKLPLPAERVTLADFKGVLQRPSYKFFFKSMDDDFGVVKEEISDDNAKLPCFNGRVVSWLVRA", "note": "[S79R]", "abundance fitness": "-0.31 ± 0.055"}
{"variant": "GEQKIIYHLDGQETPYLVKLPLPAERVTLADFKGVLQRPSYKFFFKSMDDDFGVVKEEISDDNAKLPCFNGRVVSWLVSA", "note": "[T3Q]", "abundance fitness": "-1.05 ± 0.2"}
{"variant": "GETKIIYHLDGQETPYLVKLPLPAERVTLADFKGVLQRPSYKFFFKSMSDDFGVVKEEISDDNAKLPCFNGRVVSWLVSA", "note": "[D49S]", "abundance fitness": "0.234 ± 0.048"}
{"variant": "GETKIIYHLDGQETPYLVKLPLPAERVTLADFKGVLQRPSYKFFFKSMDDDFGVYKEEISDDNAKLPCFNGRVVSWLVSA", "note": "[V55Y]", "abundance fitness": "0.2 ± 0.08"}
{"variant": "GETKKIYHLDGQETPYLVKLPLPAERVTLADFKGVLQRPSYKFFFKSMDDDFGVVKEEISDDNAKLPCFNGRVVSWLVSA", "note": "[I5K]", "abundance fitness": "-1.16 ± 0.21"}
{"variant": "GETKIIYHLDGQETPYLVKLPLPAERVTLADFKGVLQRPSYKFFFKSMDDDFGVQKEEISDDNAKLPCFNGRVVSWLVSA", "note": "[V55Q]", "abundance fitness": "0.106 ± 0.06"}
{"variant": "GETKIIYHLDGQETPYLVKLPLPAERVTLADFKGVLQRPSYKFFFKSMDDDFGVVKEEISDSNAKLPCFNGRVVSWLVSA", "note": "[D62S]", "abundance fitness": "-0.748 ± 0.11"}
{"variant": "GETKIIYHLDGQETPYLVKLPLPAERVTLADFKGVLQRPSYKFFFKSMDDDFGVVKEEISDDNAKLPCFNGRVVSYLVSA", "note": "[W76Y]", "abundance fitness": "-0.456 ± 0.2"}
{"variant": "GETKIIYHLDGQETPYLVKLPLPAECVTLADFKGVLQRPSYKFFFKSMDDDFGVVKEEISDDNAKLPCFNGRVVSWLVSA", "note": "[R26C]", "abundance fitness": "-0.102 ± 0.09"}
{"variant": "GETKIIYHLDGQETPYLVKLPLPAERVTLADFKGVLQRPSYKFFFKSMDDDFGVVKEEISDDNAKLPCFNGRVVSVLVSA", "note": "[W76V]", "abundance fitness": "-0.565 ± 0.088"}
{"variant": "GETKIIYHLDGQETPYLVKLPLPAERVTLNDFKGVLQRPSYKFFFKSMDDDFGVVKEEISDDNAKLPCFNGRVVSWLVSA", "note": "[A30N]", "abundance fitness": "-0.433 ± 0.19"}
{"variant": "GETKIIYHLDGQETPYLVKLPLPAERVTLADFKGVLQRPSYKFFFKSTDDDFGVVKEEISDDNAKLPCFNGRVVSWLVSA", "note": "[M48T]", "abundance fitness": "0.296 ± 0.057"}
{"variant": "GETKIIYHLDGQETPYLVKLPLPYERVTLADFKGVLQRPSYKFFFKSMDDDFGVVKEEISDDNAKLPCFNGRVVSWLVSA", "note": "[A24Y]", "abundance fitness": "-0.325 ± 0.15"}
{"variant": "GETKIIYHLDGQETPYLVKLPLPAPRVTLADFKGVLQRPSYKFFFKSMDDDFGVVKEEISDDNAKLPCFNGRVVSWLVSA", "note": "[E25P]", "abundance fitness": "-0.965 ± 0.19"}
{"variant": "GETKIIYHLDGQETPYLVKLPLPAERVTLADFKGVLQRPSYKFFFKMMDDDFGVVKEEISDDNAKLPCFNGRVVSWLVSA", "note": "[S47M]", "abundance fitness": "0.415 ± 0.054"}
{"variant": "GETKIIYHVDGQETPYLVKLPLPAERVTLADFKGVLQRPSYKFFFKSMDDDFGVVKEEISDDNAKLPCFNGRVVSWLVSA", "note": "[L9V]", "abundance fitness": "0.167 ± 0.043"}
{"variant": "GETKIIYHLFGQETPYLVKLPLPAERVTLADFKGVLQRPSYKFFFKSMDDDFGVVKEEISDDNAKLPCFNGRVVSWLVSA", "note": "[D10F]", "abundance fitness": "-0.677 ± 0.2"}
{"variant": "DETKIIYHLDGQETPYLVKLPLPAERVTLADFKGVLQRPSYKFFFKSMDDDFGVVKEEISDDNAKLPCFNGRVVSWLVSA", "note": "[G1D]", "abundance fitness": "-0.205 ± 0.1"}
{"variant": "GETKIIYHLDGQETPYLVKLPLPAERVTLADFKGVLQRPSYKFFFKSMFDDFGVVKEEISDDNAKLPCFNGRVVSWLVSA", "note": "[D49F]", "abundance fitness": "-0.488 ± 0.17"}
{"variant": "GETKITYHLDGQETPYLVKLPLPAERVTLADFKGVLQRPSYKFFFKSMDDDFGVVKEEISDDNAKLPCFNGRVVSWLVSA", "note": "[I6T]", "abundance fitness": "-0.132 ± 0.074"}
{"variant": "GETKIIYHLDGQETPYLVKLPLPAERVTLADFKGVLYRPSYKFFFKSMDDDFGVVKEEISDDNAKLPCFNGRVVSWLVSA", "note": "[Q37Y]", "abundance fitness": "-0.1 ± 0.1"}
{"variant": "GETKIIYHLDGQETPYLVKLPLPAERVTLADFKGVLQRPSYKFFFKSMDDDFGVVKEEISDDNAKLPIFNGRVVSWLVSA", "note": "[C68I]", "abundance fitness": "-0.049 ± 0.071"}
